Measurements reported in patent US20240254227A1 (Alector, published 2024).
Each block holds one binder with its values, some of them ahead of it.

Legend:
[1] = target: T1, murine CD300LB stably expressed on Jurkat cells (mouse, UniProt Q3U497 18-209); assay: flow cytometry, stable Jurkat cells, 10 ug/mL, isotype subtracted
T1 construct: also called muCD300LB; mouse CD300LB
T1 sequence: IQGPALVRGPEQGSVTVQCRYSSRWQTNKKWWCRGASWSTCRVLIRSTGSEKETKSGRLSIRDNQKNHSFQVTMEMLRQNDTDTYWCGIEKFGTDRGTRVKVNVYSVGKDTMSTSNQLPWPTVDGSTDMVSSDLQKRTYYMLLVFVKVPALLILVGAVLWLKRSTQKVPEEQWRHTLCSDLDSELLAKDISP
Procedure: Purified anti-CD300LB antibodies of the present disclosure were analyzed for cross-reactivity to other murine CD300 family members stably expressed in Jurkat cells (generation of which is described above). Cells were counted and labeled with 200 nM CFSE, 500 nM VioBlue, or a combination of the two to discriminate between muCD300LB, Parental cells, CD300F, and the other CD300 family members. Cells were washed thoroughly with PBS containing 2% fetal bovine serum then resuspended at a total of 240,000 cells per well. Purified antibodies at 10 μg/mL were added and incubated for one hour before the cells were washed twice again and stained with an APC-labeled anti-mouse secondary. Cells were then analyzed using a BD FACSCanto II. Antibodies were analyzed for specific binding to muCD300LB by FlowJo software by gating on live cells, then the APC gMFI calculated for each labeled population by subtracting the gMFI of the isotype control. The gMFI results of the analysis are presented below in Table 4.

[2] = target: T2, murine CD300LB-Fc (mouse); assay: SPR (Carterra LSA), antibody immobilised, Fc fusion at 300 or 600 nM
T2 construct: mouse IgG2a-Fc fusion (R&D Systems); the entry is the whole fusion chain; also called mCD300LB; Mouse CD300LB-Fc
T2 chain: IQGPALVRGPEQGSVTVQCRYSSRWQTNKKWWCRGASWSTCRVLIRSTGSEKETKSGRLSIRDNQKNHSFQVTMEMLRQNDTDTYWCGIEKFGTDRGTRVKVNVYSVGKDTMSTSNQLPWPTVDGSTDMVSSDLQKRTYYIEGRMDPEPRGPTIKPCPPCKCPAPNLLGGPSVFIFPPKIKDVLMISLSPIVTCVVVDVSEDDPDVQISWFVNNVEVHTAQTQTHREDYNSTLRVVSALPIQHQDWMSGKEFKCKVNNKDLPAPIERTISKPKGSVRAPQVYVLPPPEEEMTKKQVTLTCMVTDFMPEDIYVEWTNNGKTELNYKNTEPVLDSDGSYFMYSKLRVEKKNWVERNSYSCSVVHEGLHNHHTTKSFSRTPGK
Procedure: (§1) Binding of mouse anti-CD300LB IgG1 antibodies of the present disclosure to human and murine CD300 orthologs were evaluated by surface plasmon resonance (SPR) using a Carterra LSA instrument (Carterra, Salt Lake City, UT). […] A HC200M sensor chip (Carterra) was activated using the single channel flow cell with a 7-minute injection of a 1:1:1 mixture of 100 mM MES pH 5.5, 100 mM sulfo-NHS, 400 mM EDC (all reconstituted in MES pH 5.5; 100 μL of each mixed in vial immediately before running assay). After switching to the multi-channel array flow cell, the antibodies were injected over the activated chip in a 96-spot array for 10 minutes. The remaining unconjugated active groups on the chip were then blocked by injecting 1M Ethanolamine pH 8.5 (Carterra) for 7 minutes using the single channel flow cell. After priming with running buffer (HBS-TE, Carterra) with 0.5 mg/ml BSA (Sigma), the immobilized anti-CD300LB antibodies were tested for their ability to bind human and mouse recombinant CD300LB extracellular domains. Human CD300 family members and mouse CD300A were hIgG1-Fc fusions, while mouse CD300LB, mouse CD300C, mouse CD300D, and mouse CD300E were mouse IgG2a-Fc fusions (R&D Systems). Binding was assessed by injecting each analyte over the entire antibody array using the single channel flow cell. CD300 analytes were diluted to 300 nM or 600 nM in running buffer and injected in series without regeneration. Two or three buffer blanks were run between each mouse or human ortholog, respectively. Data were processed and analyzed using NextGenKIT high-throughput kinetics analysis software (Carterra).
(§2) Results of anti-CD300LB antibody binding to murine CD300 family members is provided below in Table 8.

[3] = target: T3, murine CD300E-Fc (mouse); assay: as above
T3 construct: mouse IgG2a-Fc fusion (R&D Systems); the entry is the whole fusion chain; also called mCD300E; Mouse CD300E-Fc
T3 chain: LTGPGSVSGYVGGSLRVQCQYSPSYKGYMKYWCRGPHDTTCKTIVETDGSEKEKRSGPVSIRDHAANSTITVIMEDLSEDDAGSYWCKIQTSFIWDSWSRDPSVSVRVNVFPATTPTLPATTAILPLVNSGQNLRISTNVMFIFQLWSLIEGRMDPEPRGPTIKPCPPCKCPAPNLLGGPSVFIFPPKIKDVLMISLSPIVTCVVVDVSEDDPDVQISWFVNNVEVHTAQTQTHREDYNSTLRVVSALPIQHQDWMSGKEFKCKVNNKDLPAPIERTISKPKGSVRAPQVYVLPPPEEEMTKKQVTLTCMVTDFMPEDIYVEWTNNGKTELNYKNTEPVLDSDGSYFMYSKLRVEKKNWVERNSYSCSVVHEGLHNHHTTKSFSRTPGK
Procedure: as §1, §2

[4] = target: T4, recombinant human CD300LB overexpressed on Jurkat cells (human, UniProt A8K4G0 18-201); assay: flow cytometry, stable Jurkat cells, supernatant or 10 ug/mL, isotype subtracted
T4 construct: also called huCD300LB; huCD300LB-expressing Jurkat cells
T4 sequence: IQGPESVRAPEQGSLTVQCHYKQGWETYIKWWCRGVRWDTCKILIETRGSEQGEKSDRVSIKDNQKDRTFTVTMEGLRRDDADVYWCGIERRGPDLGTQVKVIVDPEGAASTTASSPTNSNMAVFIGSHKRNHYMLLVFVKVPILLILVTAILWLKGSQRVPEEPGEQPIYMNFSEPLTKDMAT
Outline: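 Jurkat cells stably expressing mouse or human CD300LB, plus parental cells, were dye-barcoded with CFSE and/or VioBlue and pooled at 240,000 cells/well. Hybridoma supernatant or purified antibody at 10 μg/mL was applied for 1 hour, then detected with an APC-labeled anti-human or anti-mouse secondary. APC gMFI on live cells was isotype-subtracted.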

gMFI [1]: 1610 gMFI | SPR binding (control subtracted) [2]: 370 | SPR binding (control subtracted) [3]: 11.3 | gMFI [4]: 18 gMFI
B1: anti-CD300LB antibody CD-10 (antibody, V domains shown)
VH: QVQLQQSGPELVRPGVSVKISCKGSGYTFTDYAMHWVKQSHVRSREWIGVIGTYNGHTNYNQKFKGKATMTVDKSSSTAYLELARLTSEDSAIYYCARSGSYYYSMDYWGQGTSVTVSS
VL: QIVLTQSPAIMSASPGEKVTMTCSASSSVNYMHWYQQKSGTSPKRWIYDTSKLSSGVPARFSGSGSGTSYSLTISTMEAEDAATYYCQQWSSNPPMTFGGGTKLEIK

gMFI [1]: 2520 gMFI | SPR binding (control subtracted) [2]: 328 | SPR binding (control subtracted) [3]: -0.1 | gMFI [4]: 114 gMFI
B2: anti-CD300LB antibody CD-18 (antibody, V domains shown)
VH: DVQLQESGPDLVKPSQSLSLTCTVTGYSITSGYSWHWIRQFPDNKLEWMGYILSRGDTNFNPSLKSRISITRSTSNNQFFLHFNSVTTEDTATYYCARDFFDYWGQGTTLTVSS
VL: DVLMTQTPLSLPVSLGDQASISCRSSQSIVHSNGNTYLEWYLQKPGQSPKLLIYKVSDRFSGVPDRFSGSGSGTDFTLKISRVEAEDLGVYFCFQGSHVPYTFGGGTKLEIK
